In the Human Domainome abundance scans (Beltran et al. 2025):
± gives the uncertainty stated by the source.

Assay: abundance fitness (aPCA) (normalised: wild type 0, dead -1); higher = more abundant; growth selection in yeast, the domain comes from the species named
Details: Homo sapiens

“E3 ubiquitin-protein ligase NEDD4-like H214L, Q96PU5” and “E3 ubiquitin-protein ligase NEDD4-like H214M, Q96PU5” are within error of each other in abundance fitness: -0.05 ± 0.051 for the first, 0.011 ± 0.083 for the second.

“E3 ubiquitin-protein ligase NEDD4-like H214N, Q96PU5” and “E3 ubiquitin-protein ligase NEDD4-like H214P, Q96PU5” are within error of each other in abundance fitness: -0.032 ± 0.11 for the first, -0.063 ± 0.077 for the second.

First: E3 ubiquitin-protein ligase NEDD4-like H214Q, Q96PU5
Second: E3 ubiquitin-protein ligase NEDD4-like H214R, Q96PU5
The abundance fitness of the first is lower: -0.211 ± 0.089 for the first, -0.005 ± 0.068 for the second.

“E3 ubiquitin-protein ligase NEDD4-like H214S, Q96PU5” and “E3 ubiquitin-protein ligase NEDD4-like H214T, Q96PU5” are within error of each other in abundance fitness: -0.035 ± 0.057 for the first, -0.062 ± 0.067 for the second.

“E3 ubiquitin-protein ligase NEDD4-like H214V, Q96PU5” and “E3 ubiquitin-protein ligase NEDD4-like H214W, Q96PU5” are within error of each other in abundance fitness: -0.026 ± 0.058 for the first, -0.068 ± 0.066 for the second.

“E3 ubiquitin-protein ligase NEDD4-like H214Y, Q96PU5” and “E3 ubiquitin-protein ligase NEDD4-like H222C, Q96PU5” are within error of each other in abundance fitness: 0.035 ± 0.088 for the first, -0.052 ± 0.094 for the second.

“E3 ubiquitin-protein ligase NEDD4-like H222D, Q96PU5” and “E3 ubiquitin-protein ligase NEDD4-like H222E, Q96PU5” are within error of each other in abundance fitness: 0.071 ± 0.067 for the first, -0.013 ± 0.083 for the second.

“E3 ubiquitin-protein ligase NEDD4-like H222F, Q96PU5” and “E3 ubiquitin-protein ligase NEDD4-like H222G, Q96PU5” are within error of each other in abundance fitness: -0.052 ± 0.089 for the first, -0.07 ± 0.06 for the second.

Compared with “E3 ubiquitin-protein ligase NEDD4-like H222I, Q96PU5”, “E3 ubiquitin-protein ligase NEDD4-like H222K, Q96PU5” is higher in abundance fitness: -0.251 ± 0.1 for the first, 0.251 ± 0.1 for the second.

Compared with “E3 ubiquitin-protein ligase NEDD4-like H222L, Q96PU5”, “E3 ubiquitin-protein ligase NEDD4-like H222M, Q96PU5” is higher in abundance fitness: -0.088 ± 0.056 for the first, 0.173 ± 0.093 for the second.

“E3 ubiquitin-protein ligase NEDD4-like H222N, Q96PU5” and “E3 ubiquitin-protein ligase NEDD4-like H222P, Q96PU5” are within error of each other in abundance fitness: -0.027 ± 0.11 for the first, -0.133 ± 0.063 for the second.

“E3 ubiquitin-protein ligase NEDD4-like H222Q, Q96PU5” and “E3 ubiquitin-protein ligase NEDD4-like H222R, Q96PU5” are within error of each other in abundance fitness: -0.022 ± 0.1 for the first, -0.016 ± 0.057 for the second.

“E3 ubiquitin-protein ligase NEDD4-like H222T, Q96PU5” and “E3 ubiquitin-protein ligase NEDD4-like H222V, Q96PU5” are within error of each other in abundance fitness: 0.081 ± 0.076 for the first, -0.045 ± 0.059 for the second.

“E3 ubiquitin-protein ligase NEDD4-like H222W, Q96PU5” and “E3 ubiquitin-protein ligase NEDD4-like H222Y, Q96PU5” are within error of each other in abundance fitness: -0.218 ± 0.071 for the first, -0.171 ± 0.11 for the second.

“E3 ubiquitin-protein ligase NEDD4-like K202A, Q96PU5” and “E3 ubiquitin-protein ligase NEDD4-like K202C, Q96PU5” are within error of each other in abundance fitness: -0.185 ± 0.06 for the first, -0.253 ± 0.097 for the second.

First: E3 ubiquitin-protein ligase NEDD4-like K202D, Q96PU5
Second: E3 ubiquitin-protein ligase NEDD4-like K202E, Q96PU5
The abundance fitness of the first is lower: -0.491 ± 0.064 for the first, -0.295 ± 0.095 for the second.

“E3 ubiquitin-protein ligase NEDD4-like K202F, Q96PU5” and “E3 ubiquitin-protein ligase NEDD4-like K202G, Q96PU5” are within error of each other in abundance fitness: -0.49 ± 0.11 for the first, -0.482 ± 0.06 for the second.

“E3 ubiquitin-protein ligase NEDD4-like K202H, Q96PU5” and “E3 ubiquitin-protein ligase NEDD4-like K202I, Q96PU5” are within error of each other in abundance fitness: -0.173 ± 0.078 for the first, -0.193 ± 0.13 for the second.

Going from “E3 ubiquitin-protein ligase NEDD4-like K202L, Q96PU5” to “E3 ubiquitin-protein ligase NEDD4-like K202M, Q96PU5”, the abundance fitness falls from -0.205 ± 0.074 to -0.496 ± 0.1.

First: E3 ubiquitin-protein ligase NEDD4-like K202N, Q96PU5
Second: E3 ubiquitin-protein ligase NEDD4-like K202P, Q96PU5
The abundance fitness of the first is higher: -0.01 ± 0.11 for the first, -0.814 ± 0.12 for the second.

“E3 ubiquitin-protein ligase NEDD4-like K202Q, Q96PU5” and “E3 ubiquitin-protein ligase NEDD4-like K202R, Q96PU5” are within error of each other in abundance fitness: -0.252 ± 0.096 for the first, -0.216 ± 0.062 for the second.

“E3 ubiquitin-protein ligase NEDD4-like K202T, Q96PU5” and “E3 ubiquitin-protein ligase NEDD4-like K202V, Q96PU5” are within error of each other in abundance fitness: -0.308 ± 0.083 for the first, -0.408 ± 0.059 for the second.

Compared with “E3 ubiquitin-protein ligase NEDD4-like K202W, Q96PU5”, “E3 ubiquitin-protein ligase NEDD4-like K202Y, Q96PU5” is higher in abundance fitness: -0.838 ± 0.089 for the first, -0.289 ± 0.11 for the second.

Going from “E3 ubiquitin-protein ligase NEDD4-like L190A, Q96PU5” to “E3 ubiquitin-protein ligase NEDD4-like L190C, Q96PU5”, the abundance fitness rises from -0.186 ± 0.075 to 0.09 ± 0.076.

“E3 ubiquitin-protein ligase NEDD4-like L190D, Q96PU5” and “E3 ubiquitin-protein ligase NEDD4-like L190F, Q96PU5” are within error of each other in abundance fitness: 0.066 ± 0.1 for the first, 0.051 ± 0.095 for the second.

“E3 ubiquitin-protein ligase NEDD4-like L190G, Q96PU5” and “E3 ubiquitin-protein ligase NEDD4-like L190H, Q96PU5” are within error of each other in abundance fitness: -0.178 ± 0.059 for the first, -0.141 ± 0.11 for the second.

“E3 ubiquitin-protein ligase NEDD4-like L190I, Q96PU5” and “E3 ubiquitin-protein ligase NEDD4-like L190K, Q96PU5” are within error of each other in abundance fitness: 0.125 ± 0.1 for the first, 0.08 ± 0.076 for the second.

Compared with “E3 ubiquitin-protein ligase NEDD4-like L190M, Q96PU5”, “E3 ubiquitin-protein ligase NEDD4-like L190N, Q96PU5” is higher in abundance fitness: -0.407 ± 0.097 for the first, -0.031 ± 0.087 for the second.

“E3 ubiquitin-protein ligase NEDD4-like L190P, Q96PU5” and “E3 ubiquitin-protein ligase NEDD4-like L190Q, Q96PU5” are within error of each other in abundance fitness: -0.479 ± 0.067 for the first, -0.556 ± 0.13 for the second.

“E3 ubiquitin-protein ligase NEDD4-like L190R, Q96PU5” and “E3 ubiquitin-protein ligase NEDD4-like L190S, Q96PU5” are within error of each other in abundance fitness: -0.024 ± 0.057 for the first, -0.02 ± 0.056 for the second.

Going from “E3 ubiquitin-protein ligase NEDD4-like L190T, Q96PU5” to “E3 ubiquitin-protein ligase NEDD4-like L190V, Q96PU5”, the abundance fitness rises from -0.182 ± 0.074 to -0.053 ± 0.053.

First: E3 ubiquitin-protein ligase NEDD4-like L190W, Q96PU5
Second: E3 ubiquitin-protein ligase NEDD4-like L190Y, Q96PU5
The abundance fitness of the first is lower: -0.503 ± 0.068 for the first, -0.094 ± 0.088 for the second.

Going from “E3 ubiquitin-protein ligase NEDD4-like L195A, Q96PU5” to “E3 ubiquitin-protein ligase NEDD4-like L195F, Q96PU5”, the abundance fitness falls from -0.072 ± 0.22 to -0.902 ± 0.38.

“E3 ubiquitin-protein ligase NEDD4-like L195G, Q96PU5” and “E3 ubiquitin-protein ligase NEDD4-like L195S, Q96PU5” are within error of each other in abundance fitness: -0.581 ± 0.28 for the first, -0.182 ± 0.33 for the second.

“E3 ubiquitin-protein ligase NEDD4-like L195V, Q96PU5” and “E3 ubiquitin-protein ligase NEDD4-like L206A, Q96PU5” are within error of each other in abundance fitness: 0.143 ± 0.17 for the first, 0.124 ± 0.059 for the second.

“E3 ubiquitin-protein ligase NEDD4-like L206C, Q96PU5” and “E3 ubiquitin-protein ligase NEDD4-like L206D, Q96PU5” are within error of each other in abundance fitness: 0.003 ± 0.09 for the first, 0.015 ± 0.095 for the second.

“E3 ubiquitin-protein ligase NEDD4-like L206E, Q96PU5” and “E3 ubiquitin-protein ligase NEDD4-like L206G, Q96PU5” are within error of each other in abundance fitness: 0.044 ± 0.084 for the first, 0.059 ± 0.059 for the second.

First: E3 ubiquitin-protein ligase NEDD4-like L206I, Q96PU5
Second: E3 ubiquitin-protein ligase NEDD4-like L206K, Q96PU5
The abundance fitness of the first is lower: -0.159 ± 0.13 for the first, 0.126 ± 0.11 for the second.

“E3 ubiquitin-protein ligase NEDD4-like L206M, Q96PU5” and “E3 ubiquitin-protein ligase NEDD4-like L206N, Q96PU5” are within error of each other in abundance fitness: -0.083 ± 0.096 for the first, -0.016 ± 0.11 for the second.

Going from “E3 ubiquitin-protein ligase NEDD4-like L206P, Q96PU5” to “E3 ubiquitin-protein ligase NEDD4-like L206Q, Q96PU5”, the abundance fitness rises from -0.707 ± 0.11 to 0.021 ± 0.091.

“E3 ubiquitin-protein ligase NEDD4-like L206R, Q96PU5” and “E3 ubiquitin-protein ligase NEDD4-like L206S, Q96PU5” are within error of each other in abundance fitness: 0.04 ± 0.056 for the first, 0.065 ± 0.054 for the second.

“E3 ubiquitin-protein ligase NEDD4-like L206T, Q96PU5” and “E3 ubiquitin-protein ligase NEDD4-like L206V, Q96PU5” are within error of each other in abundance fitness: 0.011 ± 0.08 for the first, -0.056 ± 0.062 for the second.

“E3 ubiquitin-protein ligase NEDD4-like L206W, Q96PU5” and “E3 ubiquitin-protein ligase NEDD4-like L226A, Q96PU5” are within error of each other in abundance fitness: -0.034 ± 0.077 for the first, 0.021 ± 0.072 for the second.

“E3 ubiquitin-protein ligase NEDD4-like L226C, Q96PU5” and “E3 ubiquitin-protein ligase NEDD4-like L226D, Q96PU5” are within error of each other in abundance fitness: 0.063 ± 0.071 for the first, -0.023 ± 0.088 for the second.

“E3 ubiquitin-protein ligase NEDD4-like L226E, Q96PU5” and “E3 ubiquitin-protein ligase NEDD4-like L226F, Q96PU5” are within error of each other in abundance fitness: -0.203 ± 0.092 for the first, -0.079 ± 0.1 for the second.

“E3 ubiquitin-protein ligase NEDD4-like L226G, Q96PU5” and “E3 ubiquitin-protein ligase NEDD4-like L226H, Q96PU5” are within error of each other in abundance fitness: -0.117 ± 0.057 for the first, -0.065 ± 0.065 for the second.

“E3 ubiquitin-protein ligase NEDD4-like L226I, Q96PU5” and “E3 ubiquitin-protein ligase NEDD4-like L226M, Q96PU5” are within error of each other in abundance fitness: -0.186 ± 0.12 for the first, 0.011 ± 0.093 for the second.

“E3 ubiquitin-protein ligase NEDD4-like L226N, Q96PU5” showed an abundance fitness of 0.01 ± 0.09.
